Test results as given in US20230057012A1, “TGFB INHIBITORS AND USE THEREOF” (Scholar Rock, Inc., priority 2020, published 2023).

How the values were obtained:
[1] = system: Human; conditions: in vivo; cited from earlier work
[2] = system: Female Fischer344 rats or Sprague Dawley (SD) rats; conditions: rat, in vivo
Experimental: Animals receiving LY2109761 were dosed by oral gavage once daily for five or seven days. Animals were sacrificed and necropsies performed.

[3] = system: non-diseased rat BAL; assay: TGFβ downstream tonic signaling in rat BAL; assay type: in vivo
Description: Indeed, data presented herein support this notion. […] Preferably, TGFβ antagonists for use in the treatment of such conditions exert their inhibitory activities only towards the disease-induced or disease-associated isoform, while preserving the function of the other isoforms that are normally expressed to mediate tonic signaling in the tissue. […] Alternatively or additionally, agents that target and block integrin-dependent activation of TGFβ may be capable of blocking only a subset of integrins responsible for disease-associated TGFβ1 activation, among numerous integrin types that are expressed by various cell types and play a role in the pathogenesis. Furthermore, even where such antagonists may selectively block integrin-mediated activation of the TGFβ1 isoform, it may be ineffective in blocking TGFβ1 activation triggered by other modes, such as protease-dependent activation. By contrast, the isoform-specific, inhibitors of TGFβ1 such as those described herein are aimed to prevent the activation step of TGFβ1 regardless of the particular mode of activation, while maintaining isoform selectivity. Preferably, the isoform-selective activation inhibitor of TGFβ1 is Ab46 or an engineered molecule comprising an antigen-binding fragment thereof.

Row | Molecule | Half-life [1] | previously reported adverse events in human patients [1] | bone findings [2] | TGFβ downstream tonic signaling [3]
1 | GC1008: human analog of 1D11, pan-TGFβ antibody | Half-life: 21.7 d | leukocytosis (grade 3), fatigue (grade 3), hypoxia (grade 3), asystole (grade 5), leukopenia (grade 1), recurrent, transient, tender erythematous, nodular skin lesions, suppurative dermatitis, and herpes zoster |  | 
2 | c1ccc(-c2nn3c(c2-c2ccnc4cc(OCCN5CCOCC5)ccc24)CCC3)nc1 [LY2109761] |  |  | macroscopic abnormally shaped sternum and microscopic increased thickness of the hypertrophic zone in the endplate of the sternum and physis of the femur and tibia | inhibit TGFβ downstream tonic signaling
